Experimental data published in patent publication US20040191811A1, “Methods for measuring levels of uridine-diphosphate-N-acetylglucosamine and activity of inhibitors thereof” (priority 2002, published 2004).

B1: GFAT-alpha (Homo sapiens) (protein)
chain: MCGIFAYLNYHVPRTRREILETLIKGLQRLEYRGYDSAGVGFDGGNDKDWEANACKIQLIKKKGKVKALDEEVHKQQDMDLDIEFDVHLGIAHTRWATHGEPSPVNSHPQRSDKNNEFIVIHNGIITNYKDLKKFLESKGYDFESETDTETIAKLVKYMYDNRESQDTSFTTLVERVIQQLEGAFALVFKSVHFPGQAVGTRRGSPLLIGVRSEHKLSTDHIPILYRTGKDKKGSCNLSRVDSTTCLFPVEEKAVEYYFASDASAVIEHTNRVIFLEDDDVAAVVDGRLSIHRIKRTAGDHPGRAVQTLQMELQQIMKGNFSSFMQKEIFEQPESVVNTMRGRVNFDDYTVNLGGLKDHIKEIQRCRRLILIACGTSYHAGVATRQVLEELTELPVMVELASDFLDRNTPVFRDDVCFFLSQSGETADTLMGLRYCKERGALTVGITNTVGSSISRETDCGVHINAGPEIGVASTKAYTSQFVSLVMFALMMCDDRISMQERRKEIMLGLKRLPDLIKEVLSMDDEIQKLATELYHQKSVLIMGRGYHYATCLEGALKIKEITYMHSEGILAGELKHGPLALVDKLMPVIMIIMRDHTYAKCQNALQQVVARQGRPVVICDKEDTETIKNTKRTIKVPHSVDCLQGILSVIPLQLLAFHLAVLRGYDVDFPRNLAKSVTVE
notes: made in house; host or cells: SF9 insect cells (sonicated, centrifuged cell extract, not purified)
B2: GFAT-beta (Homo sapiens) (protein)
chain: MCGIFAYMNYRVPRTRKEIFETLIKGLQRLEYRGYDSAGVAIDGNNHEVKERHIQLVKKRGKVKALDEELYKQDSMDLKVEFETHFGIAHTRWATHGVPSAVNSHPQRSDKGNEFVVIHNGIITNYKDLRKFLESKGYEFESETDTETIAKLIKYVFDNRETEDITFSTLVERVIQQLEGAFALVFKSVHYPGEAVATRRGSPLLIGVRSKYKLSTEQIPILYRTCTLENVKNICKTRMKRLDSSACLHAVGDKAVEFFFASDASAIIEHTNRVIFLEDDDIAAVADGKLSIHRVKRSASDDPSRAIQTLQMELQQIMKGNFSAFMQKEIFEQPESVFNTMRGRVNFETNTVLLGGLKDHLKEIRRCRRLIVIGCGTSYHAAVATRQVLEELTELPVMVELASDFLDRNTPVFRDDVCFFISQSGETADTLLALRYCKDRGALTVGVTNTVGSSISRETDCGVHINAGPEIGVASTKAYTSQFISLVMFGLMMSEDRISLQNRRQEIIRGLRSLPELIKEVLSLEEKIHDLALELYTQRSLLVMGRGYNYATCLEGALKIKEITYMHSEGILAGELKHGPLALIDKQMPVIMVIMKDPCFAKCQNALQQVTARQGRPIILCSKDDTESSKFAYKTIELPHTVDCLQGILSVIPLQLLSFHLAVLRGYDVDFPRNLAKSVTVE
notes: as for B1

Assays:
Assay type in all cases: biochemical, human
Settings in all cases: other: extracts from transfected SF9 insect cells, 60 minutes at 37° C.
[1] = substrate: O=C(CO)[C@@H](O)[C@H](O)[C@H](O)COP(=O)(O)O; assay: Substrate Km determination for GFAT-alpha (Lineweaver-Burk plot)
Procedure: (§1) FIG. 3 illustrates the effect of varying concentrations of the substrates glutamine and fructose 6-phosphate on the enzyme activity of GFAT-alpha and GFAT-beta. FIG. 3A is a graph illustrating incubation with 10 μl glutamine 200 mM+10 μl fructose 6-phosphate 3.125, 6.25, 12.5, 25, 50, 100, and 200 mM. FIG. 3B is a graph illustrating incubation with 10 μl fructose 6-phosphate 200 mM+10 μl glutamine 3.125, 6.25, 12.5, 25, 50, 100, and 200 mM. 10 μl of GFAT-alpha and 5 μl of GFAT-beta extracts from transfected SF9 insect cells are incubated with 1) 10 μl glutamine 200 mM+10 μl fructose 6-phosphate 3.125, 6.25, 12.5, 25, 50, 100, and 200 mM, and 2) 10 μl fructose 6-phosphate 200 mM+10 μl glutamine 3.125, 6.25, 12.5, 25, 50, 100, and 200 mM in an incubation media containing 10 μl PBS 10×, 10 μl EDTA 50 mM, 10 μl DTT 10 mM, and water to 100 μl. The plate is sealed with a Costar plate sealer and incubated for 60 minutes at 37° C. by floating on a water bath. Additional incubation mixture is kept on ice to add to standard and control samples. […] After a 20-minute incubation at 37° C., the OD is determined for each well at 585 nm.
(§2) FIG. 3C is a table illustrating the Km values of the substrates for the GFAT-alpha and GFAT-beta enzymes calculated from the data generated in FIGS. 3A and 3B. […]

[2] = substrate: NC(=O)CC[C@H](N)C(=O)O; assay: as above
Procedure: as §1, §2

[3] = substrate: O=C(CO)[C@@H](O)[C@H](O)[C@H](O)COP(=O)(O)O; assay: Substrate Km determination for GFAT-beta (Lineweaver-Burk plot)
Procedure: as §1, §2

[4] = substrate: NC(=O)CC[C@H](N)C(=O)O; assay: as above
Procedure: as §1, §2

Protein | Km [1] [µM] | Km [2] [µM] | Km [3] [µM] | Km [4] [µM]
B1 | 1850 | 1490 |  | 
B2 |  |  | 6800 | 1990
